Test [1] deals with T1, Human LY6G6D ectodomain fused to mouse IgG2A Fc (monovalent display, knob-in-hole) (human).
T1 sequence (O95868 whole entry, looked up): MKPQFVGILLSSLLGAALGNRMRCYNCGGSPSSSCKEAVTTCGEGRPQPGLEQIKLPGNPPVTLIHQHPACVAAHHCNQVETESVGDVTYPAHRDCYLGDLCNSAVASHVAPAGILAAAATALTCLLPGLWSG
As to the kind of experiment: SPR, Biacore 8K+, LY6G6D-mouse Fc captured by anti-mouse antibody on CM5, antibody as analyte 50-0.7813 nM, 25 C.

The target in test [2] is Cynomolgus LY6G6D ectodomain fused to mouse IgG2A Fc (monovalent display, knob-in-hole) (cynomolgus). Put plainly: SPR, Biacore 8K+, cyno LY6G6D-mouse Fc captured by anti-mouse antibody on CM5, antibody as analyte 50-0.7813 nM, 25 C. Background: SPR reads the build-up and loss of mass on a sensor chip optically.
Sequence of Cynomolgus LY6G6D ectodomain fused to mouse IgG2A Fc (monovalent display, knob-in-hole) (cynomolgus) (O95868 other isoform, or with tags, fused parts or gaps limits assumed): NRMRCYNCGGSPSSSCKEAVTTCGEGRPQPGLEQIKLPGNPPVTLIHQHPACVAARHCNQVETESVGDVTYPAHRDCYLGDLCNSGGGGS

B1: 20A12.QNTv12 (antibody, from another filing, V domains shown)
VH: EVQLLESGGGLVQPGGSLRLSCAASGFDFVNNAMIWVRQAPGKGLEWVSALSFADNTAYYATWASGRFTISRDSSKTTVYLQMNSLRAEDTAVYYCMRGDLWGPGTLVTVSS
VL: DIQMTQSPSTLSASVGDRVTITCQASESITRYLNWYQQKPGKAPKLLIYDASKLPSGVPSRFSGSGSGTEFTLTISSLQPDDFATYYCQSTSFRGRSYQNTFGGGTKVEIKR
As for B1, in test [1], the equilibrium dissociation constant (Kd) (commonly the free concentration of one partner at which half of the binding sites on the other are occupied at equilibrium, for simple one-to-one binding) amounted to 3.67 nM and the on-rate (kon) (usually the second-order rate constant of association) worked out at 109000 M⁻¹ s⁻¹. For the same molecule, in test [2], the Kd is 3.4 nM; the koff – broadly, the rate constant with which the complex falls apart – was found to be 0.00038 s⁻¹; the kon was 112000 M⁻¹ s⁻¹.

The record behind these values is US20250361298A1.
